Measured values as given in patent publication US20230106247A1 (L AND L BIO CO LTD NINGBO CHINA, published 2023).

Experiments:
human Sirpα-V2-his [1] = target: human Sirpα-V2-his (human); experiment: ELISA EC50 against Ref2
Experimental: (§1) Different antigens (recombinant proteins) such as the human Sirpα-V1-hFc, Sirpα-V1-his, Sirpα-V2-his, Sirpβ-his, Sirpγ-his, monkey Sirpα-his (cynoSirpα-his) or NOD-mSirpα-his described in Example 1 were diluted with a PBS buffer at pH7.4 to concentrations of 1 μg/mL, 2 μg/mL or 5 μg/mL, added into a 96-well ELISA plate (Corning, CLS3590-100EA) at a volume of 50 μL/well, and placed in an incubator at 37° C. for 2 hours. After the liquid was discarded, the wells were added with a blocking solution of 5% skimmed milk (skimmed milk powder available from Bright Dairy) diluted with PBS at 230 μL/well, and incubated in an incubator at 37° C. for 3 hours, or placed overnight at 4° C. (for 16-18 hours) for blocking. […] The plated was washed with PBST for 5 times, then added with 50 μL/well of TMB chromogenic substrate (KPL, Cat #: 52-00-03), incubated at room temperature for 10-15 min, added with 50 μL/well of 1 M H₂SO₄ to stop the reaction, and read by a […] Go microplate reader (ThermoFisher, Cat #: 51119200) for the absorbance value at 450 nm, and then a clone with high binding activity was selected or a EC₅₀ value was calculated according to the OD value.

human Sirpα-V1-his [2] = target: T1, human Sirpα-V1-his (human, UniProt P78324 31-373); experiment: ELISA EC50 against Ref2
T1 construct: range 31-373; Bought (Sino Biological 11612-H08H) or expressed in-house; also called hSirpα-V1; hSirpα-V1-his
Experimental: as §1

human Sirpα-V1-hFc = target: T2, human Sirpα-V1-hFc (human, UniProt P78324 31-373); experiment: blocking ELISA, competitor CD47-his
T2 construct: range 31-373; also called hSirpα (dimer); hSirpα-V1-hFc (dimer); not shown: human IgG1 Fc region at the C-terminus
Experimental: (§2) The recombinant proteins such as human Sirpα-V1-hFc/Sirpα-V1-his were diluted to concentrations of 5 μg/mL or 2 μg/mL respectively with a PBS buffer at pH 7.4, and then added into a 96-well ELISA plate (Corning, CLS3590-100EA) at a volume of 50 μL/well, and placed in an incubator at 37° C. for 2 hours. After the liquid was discarded, the wells were added with a blocking solution of 5% skimmed milk (skimmed milk powder available from Bright Dairy) diluted with PBS at 230 μL/well, and incubated in an incubator at 37° C. for 3 hours, or placed overnight at 4° C. (for 16-18 hours) for blocking. […] The plate was washed for 5 times, added with 50 μL/well of streptavidin-HRP (GenScript, M00091) or anti-his-HRP secondary antibody (GenScript, A00612) diluted at 1:1000, incubated at 37° C. for 1 hour, and then washed with PBST for 5 times. Each well was added with 50 μL of TMB (Surmodic, Cat #: TTMB-1000-01) for color development, and added with 50 μL/well of 1 M H₂SO₄ to stop the reaction. The readings on a microplate reader (MultiskanGO Thermo, Model 51119200) were subjected to data analysis by GraphPad prism 5.

human Sirpα-V1-his [3] = target: T1, human Sirpα-V1-his; experiment: blocking ELISA, competitor CD47-hFc
Experimental: as §2

human Sirpα-V2-his [4] = target: human Sirpα-V2-his (human); experiment: blocking ELISA, competitor CD47-hFc
Experimental: Specifically, the recombinant protein of human Sirpα-V2-his was diluted to a concentration of 2 μg/mL with a PBS buffer at pH7.4, then added into a 96-well ELISA plate (Corning, CLS3590-100EA) at a volume of 50 μL/well, and placed in an incubator at 37° C. for 2 hours. After the liquid was discarded, the wells were added with a blocking solution of 5% skimmed milk (skimmed milk powder available from Bright Dairy) diluted with PBS at 230 μL/well, and incubated in an incubator at 37° C. for 3 hours, or placed overnight at 4° C. (for 16-18 hours) for blocking. […] The plate was washed for 5 times, added with 50 μL/well of a streptavidin-HRP secondary antibody (GenScript, M00091) diluted at 1:1000, incubated at 37° C. for 1 hour, and then washed with PBST for 5 times. Each well was added with 50 μL TMB (Surmodic, Cat #TTMB-1000-01) for color development, and added with 50 μL/well of 1 M H₂SO₄ to stop the reaction. The readings on a microplate reader (MultiskanGO Thermo, Model: 51119200) were subjected to data analysis by GraphPad prism 5.

[5] = target: T3, human Sirpα-V1 on CHO-K1 cells (CHO-K1 hSirpα+ cell line) (human, UniProt P78324 31-504); experiment: cell ELISA on hSirpα-v1+ cell strain
T3 construct: whole, on cells; also called hSirpα-v1+ cell strain
Excerpt: The readings on a microplate reader (MultiskanGO Thermo, Model 51119200) were subjected to data analysis by GraphPad prism 5.

human Sirpα-V2-his (human), sequence (chain, as listed by the source): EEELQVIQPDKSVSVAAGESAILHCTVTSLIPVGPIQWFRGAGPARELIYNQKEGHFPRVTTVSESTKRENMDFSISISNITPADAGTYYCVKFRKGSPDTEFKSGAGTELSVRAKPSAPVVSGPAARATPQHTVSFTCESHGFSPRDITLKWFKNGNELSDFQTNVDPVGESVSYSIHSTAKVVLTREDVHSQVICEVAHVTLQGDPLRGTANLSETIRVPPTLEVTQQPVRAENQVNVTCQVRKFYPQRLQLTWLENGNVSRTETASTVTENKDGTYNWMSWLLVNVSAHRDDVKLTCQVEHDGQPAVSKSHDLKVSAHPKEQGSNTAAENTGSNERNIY

B1: humanized antibody mab14-h16 (antibody, human IgG4 S228P, kappa, V domains shown)
VH: QVQLVQSGAEVKKPGASVKVSCKASGYNFNIYWINWVRQAPGQGLEWIGNIYPSSISTNYNEKFKTRATLTVDKSTSTVYMELSSLRSEDTAVYYCARSEGTYYGGRYEGDWFGYWGQGTLVTVSS
VL: DIQMTQSPSSLSASVGDRVTITCRASQDIRNYLNWYQQKPGKAPKLLIYFTSTLHSGVPSRFSGSGSGTDFTLTISSLQPEDFATYYCQQGNTLPWTFGGGTKVEIKR
notes: hIgG4, κ
B1 was tested, and the “fold stronger binding than Ref2” value (human Sirpα-V2-his [1]) was 2.9 fold, the “fold stronger binding than Ref2” value (human Sirpα-V1-his [2]) was 1.4 fold and the IC50 (human Sirpα-V1-hFc) was 5.92 nM. For the same binder, the IC50 (human Sirpα-V1-his [3]) was 5.28 nM, the IC50 (human Sirpα-V2-his [4]) was 6.29 nM and the EC50 [5] was 0.124 nM.
